Experimental data as given in the supplement of paper PMC9170038.

Tested on: MS2 coat protein
Experiment: apparent KD of MS2 coat protein; higher = weaker reporter binding
Settings: Eterna round: R107
Outline: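 Binding of SNAP-549-labelled MS2 coat protein was measured on designed RNA switches transcribed on-chip from Illumina sequencing clusters. The protein rose in twofold steps from 0.7 or 1.5 nM to 3 µM, with 0.8–1.5 h per step early on and 10–20 min per step later, in 100 mM Tris-HCl pH 7.5, 80 mM KCl, 4 mM MgCl2, without or with constant ligand. Each design's apparent KD is the median of fits to its normalised cluster binding curves.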

[1] = input ligand: theophylline 20 uM
[2] = input ligand: theophylline 2 mM
[3] = input ligand: tryptophan 2.4 mM

Sequence	apparent KD of MS2 coat protein (input ligand: arginine 13.2 mM) [nM]	apparent KD of MS2 coat protein [1] [nM]	apparent KD of MS2 coat protein [2] [nM]	apparent KD of MS2 coat protein (input ligand: none) [nM]	apparent KD of MS2 coat protein [3] [nM]
CGCCACUCGAGUGAUCCUCACGAGUGGCUACGAGGACCGGUACGGCCGCCACUCGAAUUAACAUGAGGAUCACCCAUGUAAUCCA [Brourdmod09]	21.1	217	400	–	–
CGGUAACCACAUGAGGAUCACCCAUGUGAAGGAGCGGCGAAUAAGCCAGGUAGGUCGCGCAUGAAUAAAUCAUGUAGGUGCCGAA [XArg-A 15 NuPack]	31.2	69.7	156	48.4	99.8
CGGUAACCACAUGAGGAUCACCCAUGUGAAGGAGCGGCGAAUAAGCCAGGUAGGUCGCGCAUGAAUAAAUCAUGUUGGUGCCGAA [XArg-A 16 NuPack]	31.9	121	64.5	45.7	31
CGGUACAUGAGGAUCACCCAUGUGUCGGAUACCAGAGAGCCGUCUCUCCCUUGGCAGCUGGUUUUACAUGAGGAUCACCCAUGUG [Exclusion Theophylline A GF20]	12.5	15.2	–	–	12.6
CGGUCGGUCGGCCGGUGAUUAUGGGAUGAAGGAGCGUGGGAAGCUACAGGUAGGUCGCAUCCGAAACAUCACGAUCACGGAUGUU [SSArg A #26Alt-Ms2 Mod]	46.3	134	101	–	72.4
CGUCGAGACUGAAGGAGCGAGAUAACAACAUUGGGUCUCAACACAUGAGGAUCACCCAUGUCUCAGGUAGGUCGCGGUGUCACCG [Exclusion Arginine B GF21]	142	211	150	195	132
CGUGGUGGGACGGAUACCAGCCACCGCGGCAACGCAACAUGAGGAUCACCCAUGUUGGGUGGCCCUUGGCAGCUGUCCUGCGGCG [#1 Same State - Theophylline B Attempt #26 (HarryS)]	9.91	15	–	–	11.4
CGUGUCGUAACUGAUACCAGUGUACUGACAUGAGGAUCACCCAUGUUGGGUUUUGUUGUACACCCUUGGCAGCAGAAUCGAUACG [AstrosExyTheB#7]	46.3	94	–	–	75.1
CUAGGAAACUAGUAAGGGUGGUAUUGAGAUACCAGUACAGAAAUGUACCCUUGGCAGCUCACUGCAACAUGAGGAUCACCCAUGU [Ex Theophylline A 12]	22.5	29.3	–	–	27
CUAUAAUAUAGAAGGAGCGUCGAAAAUGGGUAAACAUGAGGAUCACCCAUGUAAAGGGAACGACAGGUAGGUCGCUAUAUUAUAG [AstromonsSSArgB#12]	181	237	305	228	223
CUCUGAGUCCGCAAGGACUCAGAGGCGGAUACCAGCGAGGUCCAUCGCCCUUGGCAGCCGAACAUGAGGAUCACCCAUGUCGGUA [#1 Same State - Theophylline A Attempt #27 (HarryS)]	8.89	14.5	–	–	10.9
CUCUUCCGGAAGGAUACCAGCUACAUGAGGAUCACCCAUGUAGGAGCGGGUUUCUAAUGUAGCCCUUGGCAGCCUUAGCCCGUCG [Querarra]	15.9	36.5	–	–	18
CUGACGGACUCGGCCGCCACUGAUAGUAGGACAUGAGGAUCACCCAUGUAAACGAACCUCAUAGCCAGGACCGGGAGUCACGAAG [Same State Tryptophan B GF 22]	56.4	189	410	204	49.5
CUGCCAUGCAGGGAUACCAGUGCGUUCAGAACAUGAGGAUCACCCAUGUCGUCUGCCGAUCACCCUUGGCAGCUCUGCAUGGCAG [#05 Same State - Theophylline B]	9.22	9.45	9.73	9.69	9.91
CUGGCAGGAUGAUCCGCUGUCAGGGCUGAUACCAGCCACGAAAGUGGCCCUUGGCAGCAGCAAACAUGAGGAUCACCCAUGUAAA [(T)''-(M)'-(T)'-(Theo)-(Ms2)_Design2]	54.7	230	–	–	108
CUGUACAUCUCGGCCGCCACUGACAUGAGGAUCACCCAUGUAGUGCCGAUGAGAGACUUAUCGGCCAGGACCGGGAGGUGUGCAG [SSTryp B #32]	7.57	10.1	7.83	9.94	11.9
CUUGAUAACUGAAGGAGCGAGAAACCCUACAUGAGGAUCACCCAUGUAUACACGGGAACUUCUCAGGUAGGUCGCAGUAUGUCAA [Teveor]	90.6	89.3	165	54.4	71.5
GAAAAUCCCGUACAUGAGGAUCACCCAUGUCGAGGACCGGUACGGCCGCCACUCGCACGCAUUGCAUUGGAGGGUCAGGUACGAG [Erenerrati]	26.9	34.7	29.2	28.5	75.5
GAAGACAUGAGGAUCACCCAUGUUACACACCGAGGACCGGUACGGCCGCCACUCGUAGGCCCUCGGCUCACCUGAGAUCCGCAUC [theeternabot_sameState_MS2_Trp_A_11]	17.5	31.8	31.9	–	–

Sequence	apparent KD of MS2 coat protein (input ligand: arginine 13.2 mM) [nM]	apparent KD of MS2 coat protein [1] [nM]	apparent KD of MS2 coat protein [2] [nM]	apparent KD of MS2 coat protein (input ligand: none) [nM]	apparent KD of MS2 coat protein [3] [nM]
GACAUAUGCUAUGCGCAGGCUACCCUCAGCCGAGGACCGGUACGGCCGCCACUCGUACUACCACAUGAGGAUCACCCAUGUUAUC [theeternabot_exclusion_MS2_Trp_A_29]	20.1	28.4	23.9	–	–
GACCUUAUCUGAAGGAGCGAGGUAAAUAGGGAUAGGAACAUGAGGAUCACCCAUGUGCGGCCUCAGGUAGGUCGCAGAUGAGAUU [Exclusion Arginine B GF28]	42	103	179	93.7	113
GACUAUAUGAUAUGUCAGAAAUCCUCGAAACGAGGACCGGUACGGCCGCCACUCGAGUGAUCAACAUGAGGAUCACCCAUGUAAA [Tryp A Ex t1]	36.1	47.5	28.4	36.2	55.3
GAGACGUCGGGAAGGAGCGCAUCCAAACCACACAUGAGGAUCACCCAUGUAUAAAUAUGCAUGCAGGUAGGUCGCCCGGUGUCCC [Diaxeon]	59.7	125	97.8	87.2	75.1
GAGCUGAUGUAGGCCGGAUAUCCGGGAGAUACCAGUACAGAAAUGUACCCUUGGCAGCUCUUUCCUACAUGAGGAUCACCCAUGU [Ex Theophylline A 28]	17	21.7	–	–	17.8
GAUAUGUAUCGAAGGAGCGGCCCUUGAUCCUCAUGAGACAUGAGGAUCACCCAUGUCUCGGGCCAGGUAGGUCGCGAUAUAUAUC [Astros-omei-mod3]	24.9	24.3	24.7	18.4	21.8
GAUCGAUCAUAGUACGAUCGUUUUGUGGAAGGAGCGCAGAGGACUGCAGGUAGGUCGCCACAUGAGGAUCACCCAUGUCAGGAUU [XARG-A 24]	99.9	62.5	122	61.5	32.8
GAUGAACUAUUUGAUACCAGACUACAUGAGGAUCACCCAUGUGAGUUUCCUCCUCUGCCAGUCCCUUGGCAGCAAAUAGUUUAUC [XTheo B #7]	57.6	96.9	–	–	42.3
GAUGAACUAUUUGAUACCAGACUACAUGAGGAUCACCCAUGUGAGUUUCGUCCUCUGCCAGUCCCUUGGCAGCAAAUAGUUUAUC [XTheo B #8]	15.8	36.7	–	–	14.3
GAUGAACUAUUUGAUACCAGACUACAUGAGGAUCACCCAUGUGUGUUUAUACUUCAGUCAGUCCCUUGGCAGCAAAUAGUUUAUC [XTheo B #3]	94.8	183	–	–	158
GAUGAUAUUGCAGAUACCAGACACAUGAGGAUCACCCAUGUCGUUGGGUAGCUGGGUCGUGUCCCUUGGCAGCUGCGAUAUCAUC [#05 Exclusion-TheophyllineB]	19.8	48.2	–	–	24.5
GAUGAUAUUGCAGAUACCAGACACAUGAGGAUCACCCAUGUCUCUGAGAUGAAGGAUCGUGUCCCUUGGCAGCUGCGAUAUCAUC [Bulgaria]	25.1	72.9	–	–	30.3
GAUUACAUGAGGAUCACCCAUGUAACUGAAGGAGCGGUAAUAAAGCCAGGUAGGUCGCAGAACGACAUGUGGUUCAUCCAUGUAA [#15 Exclusion - Arginine A]	14.3	46.9	35.5	39.1	30.4
GAUUCGCAGUCGGCCGCCACUAACAUGAGCUGCUAGUUAUUAUCACAUGAGGAUCACCCAUGUCUUAGGACCGGGACAACCUGUU [theeternabot_sameState_MS2_Trp_B_26]	48.3	79.1	85.3	–	–
GCACGACAUGAGGAUCACCCAUGUGCAGAUACCAGUAGGAUAUCCUACCCUUGGCAGCUGAGUAGAUCUGGAGGACUAUAGGUAA [Same State Theophylline A GF9]	15.5	23	21.2	17.9	18.3
GCACUACAUGAGGAUCACCCAUGUGCAGAUACCAGAGGUGUAUGCCUCCCUUGGCAGCUGAGUAGCUCUGGAGGCCUAUUGGUUU [Same State Theophylline A GF15]	15.7	20	–	–	16.8
GCACUACAUGAGGAUCACCCAUGUGCAGAUACCAGAGGUGUAUGCCUCCCUUGGCAGCUGCGUCGCUCUGGAAGCCUAUUGGUUU [Same State Theophylline A GF16]	15.8	25.5	–	–	18.4
GCAUCCUAGUCGGCCGCCACUGACAUGAGGAUCACCCAUGUACAUGAGGAUCACCCAUGUUGUAACAGGACCGGGACUAGGAUGC [SS Tryp B #18]	69.3	112	141	–	–
GCAUCCUAGUCGGCCGCCACUGACAUGAGGAUCACCCAUGUACAUGAGGAUCACCCAUGUUGUAGCAGGACCGGGACUAGGAUGC [SS Tryp B #17]	176	277	295	259	75.6
